From patent publication US20210380679A1 (INHIBRX BIOSCIENCES, published 2021)

T1: human DLL3 (Delta-like ligand 3) (human, UniProt Q9NYJ7 27-618)
T1 construct: endogenous on SHP-77 cells; also called cell-surface DLL3
T1 sequence: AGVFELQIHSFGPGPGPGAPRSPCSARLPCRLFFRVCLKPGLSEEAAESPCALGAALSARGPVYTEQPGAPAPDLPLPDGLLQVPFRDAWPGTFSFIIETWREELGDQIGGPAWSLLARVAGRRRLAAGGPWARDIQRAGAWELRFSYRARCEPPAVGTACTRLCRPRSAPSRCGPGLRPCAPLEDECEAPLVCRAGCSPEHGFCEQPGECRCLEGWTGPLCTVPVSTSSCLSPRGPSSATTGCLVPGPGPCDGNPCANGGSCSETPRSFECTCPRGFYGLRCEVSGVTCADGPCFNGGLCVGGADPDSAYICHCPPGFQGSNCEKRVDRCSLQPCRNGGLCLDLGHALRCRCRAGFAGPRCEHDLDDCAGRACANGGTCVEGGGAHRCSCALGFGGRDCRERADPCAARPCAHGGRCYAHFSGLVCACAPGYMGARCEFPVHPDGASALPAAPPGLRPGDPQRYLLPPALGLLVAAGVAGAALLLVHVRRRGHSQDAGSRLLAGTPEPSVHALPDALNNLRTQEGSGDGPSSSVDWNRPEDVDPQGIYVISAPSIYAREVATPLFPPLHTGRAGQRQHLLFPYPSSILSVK

B1: cx5352 (bispecific antibody)
chain 1: EVQLVESGGGEVQPGGSLRLSCAASGSIFSINAMGWYRQAPGKQRELVAGFTGDTNTIYAESVKGRFTISRDNAKNTVYLQMSSLRAEDTAVYYCAADVQLFSRDYEFYWGQGTLVTVKPDKTHTCPPCPAPGGPSVFLFPPKPKDTLMISRTPEVTCVVVDVSHEDPEVKFNWYVDGVEVHNAKTKPREEQYNSTYRVVSVLTVLHQDWLNGKEYKCKVSNKALPAPIEKTISKAKGQPREPQVYTLPPCRDELTKNQVSLWCLVKGFYPSDIAVEWESNGQPENNYKTTPPVLDSDGSFFLYSKLTVDKSRWQQGNVFSCSVMHEALHNHYTQKSLSLSPTGGGGGSGGGGGSGGGGGSEVQLVESGGGLVQPGGSLRLSCAASGFTFNTYAMNWVRQAPGKCLEWVARIRSKYNNYATYYADSVKGRFTISRDDAKNTLYLQMSSLRAEDTAVYYCVRHGNFGNSYVSWFAYWGQGTLVTVKPEVQLVESGGGEVQPGGSLRLSCGPSEIITSDKSMGWVRQAPGKQRNLVAGISNVGSTNYAQSVKGRFTISRDNAKNTVYLQMSSLRAEDTAVYYCYARDFENEYWGQGTLVTVKP
chain 2: DKTHTCPPCPAPGGPSVFLFPPKPKDTLMISRTPEVTCVVVDVSHEDPEVKFNWYVDGVEVHNAKTKPREEQYNSTYRVVSVLTVLHQDWLNGKEYKCKVSNKALPAPIEKTISKAKGQPREPQVCTLPPSRDELTKNQVSLSCAVKGFYPSDIAVEWESNGQPENNYKTTPPVLDSDGSFFLVSKLTVDKSRWQQGNVFSCSVMHEALHNRYTQKSLSLSPTGGGGGSGGGGGSGGGGGSQAVVTQEPSLTVSPGGTVTLTCGSSTGAVTTSNYANWVQQKPGQAFRGLIGGTNKRAPGVPARFSGSLLGGKAALTISGAQPEDEADYYCALWYSNHWVFGCGTKLEIKEVQLLESGGGEVQPGGSLRLSCAASGFSFSINAMGWYRQAPGKRREFVAAIESGRNTVYAESVKGRFTISRDNAKNTVYLQMSSLRAEDTAVYYCGLLKGNRVVSPSVAYWGQGTLVTVKP
B2: cx5801 (bispecific antibody)
chain 1: DKTHTCPPCPAPGGPSVFLFPPKPKDTLMISRTPEVTCVVVDVSHEDPEVKFNWYVDGVEVHNAKTKPREEQYNSTYRVVSVLTVLHQDWLNGKEYKCKVSNKALPAPIEKTISKAKGQPREPQVYTLPPCRDELTKNQVSLWCLVKGFYPSDIAVEWESNGQPENNYKTTPPVLDSDGSFFLYSKLTVDKSRWQQGNVFSCSVMHEALHNHYTQKSLSLSPTGGGGGSGGGGGSGGGGGSEVQLVESGGGLVQPGGSLRLSCAASGFTFNTYAMNWVRQAPGKCLEWVARIRSKYNNYATYYADSVKGRFTISRDDAKNTLYLQMSSLRAEDTAVYYCVRHGNFGNSYVSWFAYWGQGTLVTVKPEVQLVESGGGEVQPGGSLRLSCGPSEIITSDKSMGWVRQAPGKQRNLVAGISNVGSTNYAQSVKGRFTISRDNAKNTVYLQMSSLRAEDTAVYYCYARDFENEYWGQGTLVTVKP
chain 2: B1 chain 2
notes: monovalent for DLL3; junction linkers not placed
B3: cx5800 (bispecific antibody)
chain 1: EVQLVESGGGEVQPGGSLRLSCAASGSIFSINAMGWYRQAPGKQRELVAGFTGDTNTIYAESVKGRFTISRDNAKNTVYLQMSSLRAEDTAVYYCAADVQLFSRDYEFYWGQGTLVTVKPDKTHTCPPCPAPGGPSVFLFPPKPKDTLMISRTPEVTCVVVDVSHEDPEVKFNWYVDGVEVHNAKTKPREEQYNSTYRVVSVLTVLHQDWLNGKEYKCKVSNKALPAPIEKTISKAKGQPREPQVYTLPPCRDELTKNQVSLWCLVKGFYPSDIAVEWESNGQPENNYKTTPPVLDSDGSFFLYSKLTVDKSRWQQGNVFSCSVMHEALHNHYTQKSLSLSPTGGGGGSGGGGGSGGGGGSEVQLVESGGGLVQPGGSLRLSCAASGFTFNTYAMNWVRQAPGKCLEWVARIRSKYNNYATYYADSVKGRFTISRDDAKNTLYLQMSSLRAEDTAVYYCVRHGNFGNSYVSWFAYWGQGTLVTVKP
chain 2: B1 chain 2
notes: as for B2
B4: cx4895 (bispecific antibody)
chain 1: EVQLVQSGGGLVQAGGSLRLSCAASGSILSINAMGWYRQPPGKQREMVAGFTGDGNTIYADSVKGRFTISRDNAKNTVYLQMNSLKPEDTAVYYCAADVQLFSRDYEFYWGQGTQVTVKPDKTHTCPPCPAPGGPSVFLFPPKPKDTLMISRTPEVTCVVVDVSHEDPEVKFNWYVDGVEVHNAKTKPREEQYNSTYRVVSVLTVLHQDWLNGKEYKCKVSNKALPAPIEKTISKAKGQPREPQVYTLPPCRDELTKNQVSLWCLVKGFYPSDIAVEWESNGQPENNYKTTPPVLDSDGSFFLYSKLTVDKSRWQQGNVFSCSVMHEALHNHYTQKSLSLSPTGGGGGSGGGGGSGGGGGSEVQLVESGGGLVQPGGSLRLSCAASGFTFNTYAMNWVRQAPGKCLEWVARIRSKYNNYATYYADSVKGRFTISRDDAKNTLYLQMSSLRAEDTAVYYCVRHGNFGNSYVSWFAYWGQGTLVTVKPEVQLQESGGGLVQAGGSLRLSCGPSEIITSDKSVGWWRQAPGKQRNLVAGISNVGSTNYAQSVKGRFTISRDNAKNTLFLQMNSLKPEDTAVYYCYARDFENEYWGRGTQVTVKP
chain 2: B1 chain 2
notes: as printed the same parts as cx4720
B5: cx4899 (bispecific antibody)
chain 1: EVQLVESGGGEVQPGGSLRLSCGPSEIITSDKSVGWWRQAPGKQRNLVAGISNVGSTNYAQSVKGRFTISRDNAKNTLYLQMSSLRAEDTAVYYCYARDFENEYWGQGTLVTVKPDKTHTCPPCPAPGGPSVFLFPPKPKDTLMISRTPEVTCVVVDVSHEDPEVKFNWYVDGVEVHNAKTKPREEQYNSTYRVVSVLTVLHQDWLNGKEYKCKVSNKALPAPIEKTISKAKGQPREPQVYTLPPCRDELTKNQVSLWCLVKGFYPSDIAVEWESNGQPENNYKTTPPVLDSDGSFFLYSKLTVDKSRWQQGNVFSCSVMHEALHNHYTQKSLSLSPTGGGGGSGGGGGSGGGGGSEVQLVESGGGLVQPGGSLRLSCAASGFTFNTYAMNWVRQAPGKCLEWVARIRSKYNNYATYYADSVKGRFTISRDDAKNTLYLQMSSLRAEDTAVYYCVRHGNFGNSYVSWFAYWGQGTLVTVKPEVQLVESGGGEVQPGGSLRLSCAASGSIFSINAMGWYRQAPGKQRELVAGFTGDTNTIYAESVKGRFTISRDNAKNTVYLQMSSLRAEDTAVYYCAADVQLFSRDYEFYWGQGTLVTVKP
chain 2: DKTHTCPPCPAPGGPSVFLFPPKPKDTLMISRTPEVTCVVVDVSHEDPEVKFNWYVDGVEVHNAKTKPREEQYNSTYRVVSVLTVLHQDWLNGKEYKCKVSNKALPAPIEKTISKAKGQPREPQVCTLPPSRDELTKNQVSLSCAVKGFYPSDIAVEWESNGQPENNYKTTPPVLDSDGSFFLVSKLTVDKSRWQQGNVFSCSVMHEALHNRYTQKSLSLSPTGGGGGSGGGGGSGGGGGSQAVVTQEPSLTVSPGGTVTLTCGSSTGAVTTSNYANWVQQKPGQAFRGLIGGTNKRAPGVPARFSGSLLGGKAALTISGAQPEDEADYYCALWYSNHWVFGCGTKLEIK
B6: 6A1 (Fc fusion)
VHH: QVQLVQSGGGLVQAGGSLRLSCAASGFSLDDYTIGWFRQAPGKEREGVSCISSSGGSTVHADSVKGRFTISRDNAKNTVWLQMNSLKPEDTAVYYCATWCGVATMTEDLPFDYWGQGTLVTVKP
notes: tested as VHH-human Fc; Fc not specified

How the values were obtained:
[1] = molecular target: T2, CD3 on the surface of T cells (human, UniProt P07766 23-207); test: flow cytometry, construct titrated on isolated primary T cells, fluorophore-conjugated anti-human IgG Fc secondary
T2 construct: whole, on cells; multi-chain complex; also called CD3 epsilon
T2 sequence (P07766 23-207): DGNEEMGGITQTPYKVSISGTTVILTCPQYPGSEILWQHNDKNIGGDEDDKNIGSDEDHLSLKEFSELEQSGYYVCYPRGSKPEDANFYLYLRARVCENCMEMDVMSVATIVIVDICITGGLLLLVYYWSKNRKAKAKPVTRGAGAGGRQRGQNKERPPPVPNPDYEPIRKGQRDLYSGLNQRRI
Procedure: (§1) Binding of exemplary multispecific polypeptide constructs of the disclosure containing an antigen-binding domain directed against DLL3 to CD3 on the surface of primary T cells and to DLL3 expressing cells (SHP-77) was assessed by flow cytometry. […] These binding assays were conducted by flow cytometry, wherein bound constructs were detected using a fluorophore-conjugated anti-human IgG Fc secondary antibody.

[2] = molecular target: T1, human DLL3 (Delta-like ligand 3); test: flow cytometry, construct titrated on SHP-77 cells (DLL3 positive), fluorophore-conjugated anti-human IgG Fc secondary
Procedure: as §1

[3] = molecular target: T1, human DLL3 (Delta-like ligand 3); test: flow cytometry, SHP-77 cells
Procedure: (§2) Binding of exemplary DLL3-targeting constrained CD3 engaging constructs of the disclosure, referred to herein as cx4720, cx3715, cx4422, cx3708, cx4052, cx3985, cx4059, cx4087, cx4088, cx4895, cx3991, cx3711, cx4887, cx4896, cx4899, cx4406, cx3707, cx3710, cx4888 and cx4890, to CD3 on the surface of primary T cells was assessed via flow cytometry (SONY SA3800 spectral analyzer) using T-cell that were negatively enriched from PBMCs isolated from healthy human donor leukopaks. Representative DLL3-targeting constrained CD3 engaging constructs were assessed for binding to T cells and DLL3 expressing cells (SHP-77). Bound cx4720, cx3715, cx4422, cx3708, cx4052, cx3985, cx4059, cx4087, cx4088, cx4895, cx3991, cx3711, cx4887, cx4896, cx4899, cx4406, cx3707, cx3710, cx4888 and cx4890 was detected with fluorophore-conjugated secondary antibodies specific for the human Fc and binding was measured by flow cytometry. Cells incubated with secondary antibody only served as negative controls.
(§3) Table E4 summarizes the affinity of exemplary molecules for DLL3 or CD3, as determined from flow cytometry, in these studies.

[4] = molecular target: T2, CD3 on the surface of T cells; test: flow cytometry, primary human T cells
Procedure: as §2, §3

[5] = molecular target: T1, human DLL3 (Delta-like ligand 3); test: flow cytometry of secreted sdAb-Fc on SHP-77 cells

Binder | binding result [1] | binding result [2] | Kd [3] [nM] | Kd [4] [nM] | binding result [5]
B1 | no binding (tested: about 67 nM) | binds | – | – | –
B2 | no binding (tested: about 67 nM) | binds | – | – | –
B3 | no binding (tested: about 67 nM) | binds | – | – | –
B4 | – | – | 0.065 | > 200 | –
B5 | – | – | 0.397 | > 200 | –
B6 | – | – | – | – | binds
